The record followed here is paper PMC3035472.

For this series, the target named is sigma A (primary sigma factor), wild type, refolded from inclusion bodies (Bacillus subtilis, UniProt P06224 1-371). Put plainly: EMSA. For orientation: Mobility shift assays separate free from complexed probe on a gel.
Sequence of sigma A (primary sigma factor), wild type, refolded from inclusion bodies (P06224 whole entry): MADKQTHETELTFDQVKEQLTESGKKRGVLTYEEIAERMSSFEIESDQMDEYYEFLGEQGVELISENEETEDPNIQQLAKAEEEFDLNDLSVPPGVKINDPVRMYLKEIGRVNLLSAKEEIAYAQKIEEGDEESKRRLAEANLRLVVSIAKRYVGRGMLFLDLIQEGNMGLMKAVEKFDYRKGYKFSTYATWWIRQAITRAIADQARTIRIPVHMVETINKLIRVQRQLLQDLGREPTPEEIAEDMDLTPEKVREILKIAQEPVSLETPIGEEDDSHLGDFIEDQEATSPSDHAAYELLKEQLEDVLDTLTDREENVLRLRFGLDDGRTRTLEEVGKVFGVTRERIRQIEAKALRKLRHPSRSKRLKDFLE

B1: tgbp3 cDNA fragment (non-promoter) (dsDNA)
DNA 1: AGACTACCATGGCTCTAAACACTGACACACTATGCATCATTCTGTTCATACTAATATTAGGCATCCTATATAATATACTTCAACAGCATCTGCCCCCACCATGTGAAATAATAATAAACGGGCACACTATATCCATTAGGGGCAACTGCTACCACACCACCTCCAGCCTCGAGCACCAC
DNA 2: GTGGTGCTCGAGGCTGGAGGTGGTGTGGTAGCAGTTGCCCCTAATGGATATAGTGTGCCCGTTTATTATTATTTCACATGGTGGGGGCAGATGCTGTTGAAGTATATTATATAGGATGCCTAATATTAGTATGAACAGAATGATGCATAGTGTGTCAGTGTTTAGAGCCATGGTAGTCT
For the molecule B1, the binding result was “binds”.
